The values that follow come from publication PMC12232886, “Multiple and Alternative Sites Make Tau Protein an Adaptable Sticky Surface for the SH3 Domain of Fyn Kinase” (Angewandte Chemie (International Ed. in English), 2025).

This test has as its target T1, Fyn-SH3 (Homo sapiens, UniProt P06241).
T1 construct: 82-143) was cloned into the pET-TEV; His-tag (TEV-cleavable, pET-TEV vector) (N, cleaved yes); made in house; host or cells: E. coli BL21(DE3)
Kind of test: Isothermal titration calorimetry (ITC), Fyn-SH3 titrated into Tau fragments. In kind it is binding. The note with it: 20 mM potassium phosphate pH 6.8, 25 °C, error from data fitting. The text has this: Figure 3 ITC analysis of Fyn‐SH3 binding to Tau. ITC measurements of Fyn‐SH3 titrated into Tau fragments 151–372 (a), 151–243 (b), 151–372 Δ175–179 (c), 151–372 Δ215–219 (d), 151–372 Δ175–179 Δ215–219 (e). The upper and lower panels show the raw thermograms (DP, differential power), and the integrated heats corrected for the heat of dilution (ΔH), respectively. The blue line in the latter panels represents the fit curve. […]
Isothermal Titration Calorimetry (ITC)
For ITC measurements, purified Fyn-SH3 and Tau proteins were dialyzed overnight against 20 mM potassium phosphate buffer (pH 6.8). Concentrations of proteins were measured using a NanoDrop instrument (Thermo Fisher Scientific), by using molar extinction coefficients at 280 nm. Calorimetric titrations were carried out on a MicroCal PEAQ-ITC instrument (Malvern) at 25 °C. The sample cell contained 20 μM Tau protein and the injection syringe 0.6 mM or 1 mM solution of Fyn-SH3. Only for the Tau mutant 151-372 Δ175-179 Δ215-219, the experiment was conducted with 60 μM Tau protein in the cell and 1.2 mM SH3 in the syringe. Titrations were carried out with a preliminary 0.4 μl injection, followed by 2 μl injections with time intervals of 150 sec, with stirring rate of 500 rpm and reference power of 10 μcal/sec. A blank titration (ligand into buffer) was recorded in the same experimental conditions and the dilution heats were subtracted to the data.
Binding isotherms were analyzed with the MicroCal PEAQ-ITC analysis software, using the two-sets of sites or the one-set of sites fitting models. […]
A general note: Isothermal titration calorimetry measures the heat released or taken up as one component is titrated into another.

Where [1] appears, read: one-set of sites model, 20 μM Tau in cell, 0.6 mM or 1 mM SH3 in syringe, read-out: Kd.

Like-named read-outs stand apart in the source and are kept apart here.

T1 sequence (P06241 82-143): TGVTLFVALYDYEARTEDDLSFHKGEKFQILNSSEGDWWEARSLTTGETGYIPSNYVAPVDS

On to “Tau 151–372 Δ175‐179 Δ215‐219: Tau 151-372 double deletion mutant lacking the PxxP motifs in HSPR1 and HSPR2”, for which the Kd is, setting by setting: (two-sets of sites model, site I, 60 μM Tau in cell, 1.2 mM SH3 in syringe, listed as Δ175–179 Δ215–219, read-out: KdI) 10 µM; (two-sets of sites model, site I, 60 μM Tau in cell, 1.2 mM SH3 in syringe, read-out: KdI) 10.3 ± 2.2 µM; (two-sets of sites model, site II, 60 μM Tau in cell, 1.2 mM SH3 in syringe, read-out: KdII) 347 ± 79 µM.
For “Tau 151–372: recombinant Tau fragment 151-372, his-tag cleaved, containing all three HSPRs”, the Kd was found to be 2.5 ± 1.1 µM (two-sets of sites model, site I, 20 μM Tau in cell, 0.6 mM or 1 mM SH3 in syringe, read-out: KdI); 38 µM (two-sets of sites model, site II, 20 μM Tau in cell, 0.6 mM or 1 mM SH3 in syringe, listed as Tau151‐372, read-out: KdII); 37.6 ± 22.7 µM (two-sets of sites model, site II, 20 μM Tau in cell, 0.6 mM or 1 mM SH3 in syringe, read-out: KdII).
As for “Tau 151–372 Δ215‐219: Tau 151-372 deletion mutant lacking the PxxP motifs in HSPR2”, the Kd was approximately 12 µM (one-set of sites model, 20 μM Tau in cell, 0.6 mM or 1 mM SH3 in syringe, listed as Tau 151–372 Δ215–219, read-out: Kd); 13 µM (one-set of sites model, 20 μM Tau in cell, 0.6 mM or 1 mM SH3 in syringe, listed as Δ215–219, read-out: Kd); 12.7 ± 4.4 µM under setting [1].
On to “Tau 151–372 Δ175‐179: Tau 151-372 deletion mutant lacking the PxxP motifs in HSPR1”, for which the Kd reads like this: (one-set of sites model, 20 μM Tau in cell, 0.6 mM or 1 mM SH3 in syringe, listed as Δ175–179, read-out: Kd) 12 µM; under setting [1], 12.2 ± 5.4 µM.
As for “Tau 151–243: recombinant Tau fragment 151-243 lacking the HSPR3 and the MBD”, under setting [1], the Kd is approximately 12 µM.
